Assay results reported in article PMC8837141, “Structural and Functional Differences between Homologous Bacterial Ribonucleases” (International Journal of Molecular Sciences, 2022).
Each block holds one molecule with its values, some of them ahead of it.

Experiments:
[1] = target: balifase (Bacillus licheniformis); assay: SEC; size-exclusion chromatography of the purified RNases; molecular weights from the elution profile of marker proteins; column and buffer not told
[2] = target: balnase (Bacillus altitudinis); assay: as above
[3] = target: the molecule itself; assay: dynamic light scattering; Zetasizer Nano ZS; RNase diluted with ultrapure water, filtered, sonicated for 2 min; particle size by volume distribution; ten runs of 30 s
[4] = target: the molecule itself; assay: SEC; size-exclusion chromatography of the purified RNases; molecular weights from the elution profile of marker proteins; column and buffer not told

stoichiometry N [1]: 2
Molecule: balifase (enzyme)

stoichiometry N [2]: 2
Molecule: balnase (enzyme)

B1: binase (enzyme, Bacillus pumilus, UniProt P00649 54-162, looked up)
chain: AVINTFDGVADYLIRYKRLPDNYITKSQASALGWVASKGNLAEVAPGKSIGGDVFSNREGRLPSASGRTWREADINYVSGFRNADRLVYSSDWLIYKTTDHYATFTRIR
notes: binase, guanyl-preferring ribonuclease of Bacillus pumilus (~12 kDa), N1/T1/U2 family (IPR000026); also called RNase from B. pumilus; source: homogeneous protein preparation, obtained using previously described three-step procedure [19,30]
stoichiometry N [3]: 2

B2: barnase (enzyme, Bacillus amyloliquefaciens, UniProt P00648 48-157, looked up)
chain: AQVINTFDGVADYLQTYHKLPDNYITKSEAQALGWVASKGNLADVAPGKSIGGDIFSNREGKLPGKSGRTWREADINYTSGFRNSDRILYSSDWLIYKTTDHYQTFTKIR
notes: barnase, guanyl-preferring ribonuclease of Bacillus amyloliquefaciens; also called RNase from B. amyloliquefaciens; source: homogeneous protein preparation, obtained using previously described three-step procedure [19,30]
stoichiometry N [4]: 2
